Patent US9701748B2, “Humanized anti-CD22 antibody” (IMMUNOMEDICS, INC., priority 2014, dated 2017)

Assays:
[1] = test system: B cells gated from PBMCs of healthy donors; assay: Trogocytosis: surface antigen levels on B cells after overnight treatment of PBMCs, flow cytometry; type: cell-based, human
Protocol: (§1) Peripheral blood mononuclear cells (PBMCs) obtained from healthy donors were incubated overnight (16-24 h) with 10 μg/mL of either epratuzumab or an isotype control mAb (hMN-14) and the relative levels of various antigens on the surface of the B cells were analyzed by flow cytometry. PBMCs from heparinized whole blood of normal donors were isolated by density gradient centrifugation on UNI-SEP tubes (Novamed Ltd, Israel). PBMCs were reconstituted in RPMI media supplemented with 10% heat inactivated fetal bovine serum and plated at a cell density of 1.5×10^6/mL in non-tissue culture treated 48-well plates. […] Stained cells were analyzed by flow cytometry on a FACSCALIBUR® (BD Biosciences) using Flowjo (V7.6.5) software. Initially, the lymphocyte population was gated by side vs. forward scattering, and B cells were further gated from this population with the CD19 signal. The mean fluorescence intensity (MFI), obtained with fluorochrome-conjugated antibodies to various cell surface antigens, on the gated B cells was calculated following treatment with epratuzumab, hMN-14 or without antibody. PBMCs from 16 healthy donors were assessed in various experiments.

B cells in PBMCs = assay: Relative B cell count after overnight treatment of PBMCs; type: cell-based, human
Protocol: as §1

NHL patients = settings: cited from earlier work
subjects = settings: reported, Morchhauser et al., 2009, Goldenberg et al., Robak & Robak, 2011; cited from earlier work
CD22 = biological target: T1, CD22 (Homo sapiens, UniProt P20273); assay: Binding affinity for CD22+ Daudi cells determined by ELISA (FIG. 2); settings: CD22+ Daudi cells, FIG. 2
T1 construct: endogenous in cells; host or cells: Daudi (Burkitt lymphoma) cells
Protocol: FIG. 2. Comparative binding affinity for CD22+ Daudi cells of hLL2 IgG, hRFB4 IgG, chimeric RFB4 conjugated to AD2 peptide, and hMN-14 IgG, as determined by ELISA. The binding affinity of hRFB4 as determined for Daudi cells is about 10-fold higher than that of hLL2 and about 30% higher than the chimeric RFB4.
The hRFB4 antibody was prepared as described above, resulting in a humanized anti-CD22 antibody with variable region sequences as shown in FIG. 1A and FIG. 1B (SEQ ID NO:7 and SEQ ID NO:8). After expression, the binding affinity or CD22+ Daudi cells was compared to that of the hLL2 antibody, comprising the same FR and constant region sequences but different CDR sequences, and to the chimeric RFB4 antibody, comprising the same CDR sequences but different FR and constant region sequences.

Daudi cells = assay: Dose-response of trogocytosis of CD22 and CD19 from Daudi cells (FIG. 6A, 6B); type: cell-based, human
[2] = test system: NHL Burkitt cell lines (Daudi, Raji, and Ramos); assay: Surface markers on NHL Burkitt cell lines, isolated or spiked into normal PBMCs; type: cell-based, human
Excerpt: This mechanism of action may explain the limited effectiveness of high doses of epratuzumab compared to lower doses in patients with SLE.

[3] = test system: patients with SLE who have failed at least one previous therapy; assay: Combination therapy of SLE with hRFB4 and hLL2; type: in vivo, human; settings: single antibody alone, same dosage and schedule
Protocol: Patients with SLE who have failed at least one previous therapy receive combination therapy with 160 mg each of hRFB4 and hLL2 (epratuzumab), administered s.c. in 2 injections weekly for four weeks. Control groups receive hRFB4 alone, hLL2 alone or irrelevant antibody (hMN-14) at the same dosage and schedule. […] All serum samples evaluated for anti-human antibodies (HAHA) are negative.

[4] = Antibody-dependent cell-mediated cytotoxicity in vitro; type: cell-based
[5] = Complement-dependent cytotoxicity in vitro; type: cell-based
circulating B cells = settings: may be overestimated due to use of CD19+ cells to measure B cells; cited from earlier work
[6] = 4 doses of 80, 160 or 320 mg s.c. every two weeks
[7] = 10 μg/mL, overnight, PBMCs of healthy donors

In the case of “veltuzumab: humanized IgG1 antibody against CD20”, the “reduction of CD19, CD21 and CD79b compared with epratuzumab” value ([1]; PBMCs of healthy donors, overnight, FIG. 9) is given as “greater extent than epratuzumab”, the “reduction of the B cell count” value (B cells in PBMCs; 10 μg/mL, overnight, PBMCs of healthy donors, FIG. 9) is given as 40% and the “objective response in the 80 mg dosage group” value (NHL patients; 80 mg) is given as 67%. For the same molecule, the “patients showing a complete response in the 80 mg dosage group” value (NHL patients; 80 mg) was “one of three”, the “CR/CRu (complete response) rate” value (NHL patients; [6]) was 24% and the “objective response rate (CR+CRu+PR)” value (NHL patients; [6]) was 47%. The “objective responses continued for 60 weeks” value (NHL patients; 60 weeks) was “Four out of eight”, the “HAHA in serum samples” value (NHL patients; all serum samples evaluated) was “negative” and the safety (NHL patients; s.c.) was “Only occasional, mild to moderate and transient injection reactions”. For the same molecule, the “immunogenicity compared with rituximab” value (subjects) was “less immunogenic in subjects than rituximab”.

B1: hLL2: humanized anti-CD22 antibody hLL2 (epratuzumab) (antibody, V domains shown)
VH: QVQLQQSGAEVKKPGSSVKVSCKASGYTFTSYWLHWVRQAPGQGLEWIGYIYPRNDYTEYNQNFKDKATITADESTNTAYMELSSLRSEDTAFYFCARRDITTFYWGQGTTVTVSS
VL: DIQLTQSPSSLSASVGDRVTMSCKSSQSVLYSANHKNYLAWYQQKPGKAPKLLIYWASTRESGVPSRFSGSGSGTDFTFTISSLQPEDIATYYCHQYLSSWTFGGGTKVQIKR
For B1, the Kd (CD22) was 2 nM, the “CD19 level on B cells, % of untreated or control mAb” value [1, 7] was 50% and the “CD20 level on B cells, % of untreated or control mAb” value [1, 7] was 82%. For the same molecule, the “CD21 level on B cells, % of untreated or control mAb” value [1, 7] was 52%, the “CD22 level on B cells, % of untreated or control mAb” value [1, 7] was 10% and the “CD62L level on B cells, % of untreated or control mAb” value [1, 7] was 73%. The “CD79b level on B cells, % of untreated or control mAb” value [1, 7] was 70%, the “change of CD27 (on CD27+ B cells), CD40, CD44, CD45, β7 integrin and LFA-1 (CD11a and CD18)” value [1, 7] was under 10 % change and the “responsiveness of CD27− naive B cells compared to CD27+ memory B cells” value ([1]; CD19, PBMCs from 3 healthy donors) was “more responsive”. For the same molecule, the “time course of the reduction of surface antigens” value ([1]; PBMCs of healthy donors) was “essentially complete within a few hours”, the B cell depletion (B cells in PBMCs; either at 10 μg/mL or 1 mg/mL, ex vivo) was “did not cause significant B cell depletion” and the “minimal concentration to induce the maximal level of trogocytosis of CD19” value (Daudi cells; CD19 from Daudi cell, FIG. 6B) was 10 ng/mL. For the same molecule, the “minimal concentration to induce the maximal level of trogocytosis of CD22” value (Daudi cells; CD22 from Daudi cell, FIG. 6A) was 10 ng/mL, the “concentration inducing the maximal level of trogocytosis of CD19 and CD22” value (Daudi cells; dose-response curve, FIG. 6A and 6B) was 10 ng/mL and the “reduction of CD22, CD19, CD21, CD20 and CD79b on the surface of B cells” value ([2]; PBMCs from normal donors or lupus patients, and NHL lines spiked into normal PBMCs) was “substantial reduction”. For the same molecule, the “surface markers decreased in isolated NHL cells” value ([2]; isolated NHL cells, no effector cells) was “only CD22, but not other surface markers, was appreciably decreased”, the objective responses [3] was “Objective responses are observed” and the antibody-dependent cell-mediated cytotoxicity [4] was “modest, but significant”. For the same molecule, the complement-dependent cytotoxicity [5] was “negligible” and the “depletion of circulating B cells in patients, on average” value (circulating B cells) was 35%.
